In general, koff refers to a measure of how fast the partners let go of each other. Low values mean slow dissociation, high ones fast dissociation. What is called kon is a measure of how fast the partners come together.

The results in this text go back to publication PMC12649893 (Biosensors, 2025).

Common to all, as to conditions: both partners purified
Test [1] deals with T1, Blood dendritic cell antigen 2 of macaca fascicularis (cBDCA-2) extracellular fragment (Macaca fascicularis, UniProt A0A2K5UWP4).
T1 construct: Blood dendritic cell antigen 2 (BDCA-2) of Macaca fascicularis, extracellular fragment, residues 45-213 of XP_005570080.1; source: CHO, transient transfection, purified (Ni-NTA, SEC Superdex 75)
The test is described as follows: BLI; standard measurement of kinetics with the immobilization of antibodies on AR2G sensors (Sartorius). A general note: BLI is a label-free optical method that tracks binding on a fibre tip over time.

Test [2] has as its target T1, Blood dendritic cell antigen 2 of …. Put plainly: BLI; biotinylated FcγRIa on SA sensors (5 μg/mL, to 1 nm), antibodies for 300 s, then antigens 10 μg/mL for 600 s; kinetic buffer pH 7.4, 30 °C; constants from the empirical model Equation (A1), k_diss fixed.
Test [3] has the same target. Put plainly: BLI; biotinylated FcγRIIIa on SA sensors (5 μg/mL, to 1 nm), antibodies for 300 s, then antigens 10 μg/mL for 300 s; kinetic buffer pH 7.4, 30 °C; constants from the empirical model Equation (A1), k_diss fixed.
Test [4] addresses T2, Nectin-like protein 5 (NECL-5 or CD155) extracellular fragment (UniProt P15151).
T2 construct: Nectin-like protein 5 (NECL-5, CD155, poliovirus receptor), extracellular fragment, residues 28-343 of NP_001129242.2; also called poliovirus receptor; source: CHO, transient transfection, purified (Ni-NTA, SEC Superdex 75)
Put plainly: BLI; ProA sensors; antibodies loaded at 10 micrograms/mL for 300 s, antigens 10 μg/mL, association 7200 s; 30 °C, PBS, 0.1% Tween 20, 0.1% BSA, pH 7.4; constants from the empirical model Equation (A1), k_diss fixed.

Test [5] concerns the target T3, Triggering receptor expressed on myeloid cells 2 (TREM-2) extracellular fragment (UniProt Q9NZC2-1).
T3 construct: Triggering receptor expressed on myeloid cells 2 (TREM-2), extracellular fragment, residues 19-174 of NP_061838.1; source: CHO, transient transfection, purified (Ni-NTA, SEC Superdex 75)
Described as above.

Test [6] has as its target T1, Blood dendritic cell antigen 2 of …. The test is described as above.
Test [7] shares this target. Put plainly: BLI; biotinylated FcRn on SA sensors (5 μg/mL, to 1 nm), antibodies 10 μg/mL for 180 s, then antigens 20 μg/mL for 300 s; kinetic buffer pH 6.0, 30 °C; constants from the empirical model Equation (A1), k_diss fixed.
Test [8] concerns the target T2, Nectin-like protein 5 (NECL-5 or CD155) …. Put plainly: BLI; standard measurement of kinetics with the immobilization of antibodies on AR2G sensors (Sartorius).
Test [9] shares this target. Put plainly: BLI; biotinylated FcγRIa on SA sensors (5 μg/mL, to 1 nm), antibodies for 300 s, then antigens 10 μg/mL for 600 s; kinetic buffer pH 7.4, 30 °C; constants from the empirical model Equation (A1), k_diss fixed.
Test [10] has the same target. The test is described as follows: BLI; biotinylated FcγRIIIa on SA sensors (5 μg/mL, to 1 nm), antibodies for 300 s, then antigens 10 μg/mL for 300 s; kinetic buffer pH 7.4, 30 °C; constants from the empirical model Equation (A1), k_diss fixed.
Test [11] addresses T1, Blood dendritic cell antigen 2 of …. The test is described as follows: BLI; ProA sensors; antibodies loaded at 10 micrograms/mL for 300 s, antigens 10 μg/mL, association 7200 s; 30 °C, PBS, 0.1% Tween 20, 0.1% BSA, pH 7.4; constants from the empirical model Equation (A1), k_diss fixed. This is another data set of the same source.
The target in test [12] is T2, Nectin-like protein 5 (NECL-5 or CD155) …. The test is described as above. The source holds these as a separate data set.
Test [13] has the same target. The test is described as follows: BLI; biotinylated FcRn on SA sensors (5 μg/mL, to 1 nm), antibodies 10 μg/mL for 180 s, then antigens 20 μg/mL for 300 s; kinetic buffer pH 6.0, 30 °C; constants from the empirical model Equation (A1), k_diss fixed.

T2 sequence (P15151 28-343): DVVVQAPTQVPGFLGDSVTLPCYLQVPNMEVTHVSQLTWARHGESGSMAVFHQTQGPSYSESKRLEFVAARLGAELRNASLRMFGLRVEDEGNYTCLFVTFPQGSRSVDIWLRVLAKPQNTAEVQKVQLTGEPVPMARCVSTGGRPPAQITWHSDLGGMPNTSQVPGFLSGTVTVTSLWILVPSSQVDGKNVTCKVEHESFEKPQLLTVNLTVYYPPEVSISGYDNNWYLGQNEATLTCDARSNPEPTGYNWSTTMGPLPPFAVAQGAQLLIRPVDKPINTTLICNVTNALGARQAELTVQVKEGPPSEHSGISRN
T3 sequence (Q9NZC2 19-174): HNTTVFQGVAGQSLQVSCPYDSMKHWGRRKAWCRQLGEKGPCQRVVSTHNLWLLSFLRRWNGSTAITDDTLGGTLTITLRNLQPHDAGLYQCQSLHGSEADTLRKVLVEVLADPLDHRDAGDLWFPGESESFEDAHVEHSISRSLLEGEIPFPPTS

B1: AB1 antibody specific to BDCA-2 (BIIB059) (antibody, V domains shown)
VH: DVQLVESGGGLVKPGGSLRLSCAASGFTFSTYTMSWVRQAPGKGLEWVATISPGDSFGYYYPDSVQGRFTISRDNAKNSLYLQMNSLRAEDTAVYYCTRDIYYNYGAWFAYWGQGTLVTVSS
VL: DIQLTQSPSSLSASVGDRVTITCKASQSVDYDGDSYMNWYQQKPGKAPKLLIYAASTLESGVPSRFSGSGSGTDFTLTISSLQPEDFATYYCQQANEDPRTFGQGTKVEIK
In the case of B1, in test [1], the koff came to 3.72e-05 s⁻¹. Besides, the kon in test [1] worked out at 134000 M⁻¹ s⁻¹; in [2] it was 265000 M⁻¹ s⁻¹; in test [3], 470000 M⁻¹ s⁻¹; in [6], 12000 M⁻¹ s⁻¹; in test [7], 180000 M⁻¹ s⁻¹. Also, the binding result in test [4] and in test [5] was “no binding (tested: 10 μg/mL)” each time.

B2: AB2 antibody specific to NECL-5 (NTX1088) (antibody, V domains shown)
VH: QVQLVQSGAEVKKPGASVKVSCKATGYTFSNYWIEWVRQAPGQGLEWIGEIFPGSGRINFNEKFKGRVTFTADTSISTTYMELSRLRSDDTAVYYCARTKIYGNSFDYWGQGTLVTVSS
VL: DIQMTQSPSSLSASVGDRVTITCKASQDVGTAVVWYQQKPGKAPKLLIYWASSRHEGVPDRFSGSGSGTDFTLTISSLQPEDFADYFCQQYSRYPLTFGQGTKLEIK
In [8], B2 had a koff of 0.00105 s⁻¹. Moreover, the kon in test [8] was determined as 179000 M⁻¹ s⁻¹; in test [9], 99000 M⁻¹ s⁻¹; in test [10], 39500 M⁻¹ s⁻¹; in test [12] it was 52000 M⁻¹ s⁻¹; in [13] it was 20000 M⁻¹ s⁻¹. Further, the binding result in [11] and in [5] was “no binding (tested: 10 μg/mL)” in each case.
